Results taken from IntAct's records for PubMed 31515488.

B1: Tektin-4 (Homo sapiens), Q8WW24 (parent)
chain: MAQTVPPCELPCKEYDVARNTGAYTSSGLATASFRTSKYLLEEWFQNCYARYHQAFADRDQSERQRHESQQLATETQALAQRTQQDSTRTVGERLQDTHSWKSELQREMEALAAETNLLLAQKQRLERALDATEVPFSITTDNLQCRERREHPNLVRDHVETELLKEAELIRNIQELLKRTIMQAVSQIRLNREHKETCEMDWSDKMEAYNIDETCGRHHSQSTEVQAHPYSTTFQESASTPETRAKFTQDNLCRAQRERLASANLRVLVDCILRDTSEDLRLQCDAVNLAFGRRCEELEDARYKLHHHLHKTLREITDQEHNVAALKQAIKDKEAPLHVAQTRLYLRSHRPNMELCRDAAQFRLLSEVEELNMSLTALREKLLEAEQSLRNLEDIHMSLEKDIAAMTNSLFIDRQKCMAHRTRYPTILQLAGYQ
partner: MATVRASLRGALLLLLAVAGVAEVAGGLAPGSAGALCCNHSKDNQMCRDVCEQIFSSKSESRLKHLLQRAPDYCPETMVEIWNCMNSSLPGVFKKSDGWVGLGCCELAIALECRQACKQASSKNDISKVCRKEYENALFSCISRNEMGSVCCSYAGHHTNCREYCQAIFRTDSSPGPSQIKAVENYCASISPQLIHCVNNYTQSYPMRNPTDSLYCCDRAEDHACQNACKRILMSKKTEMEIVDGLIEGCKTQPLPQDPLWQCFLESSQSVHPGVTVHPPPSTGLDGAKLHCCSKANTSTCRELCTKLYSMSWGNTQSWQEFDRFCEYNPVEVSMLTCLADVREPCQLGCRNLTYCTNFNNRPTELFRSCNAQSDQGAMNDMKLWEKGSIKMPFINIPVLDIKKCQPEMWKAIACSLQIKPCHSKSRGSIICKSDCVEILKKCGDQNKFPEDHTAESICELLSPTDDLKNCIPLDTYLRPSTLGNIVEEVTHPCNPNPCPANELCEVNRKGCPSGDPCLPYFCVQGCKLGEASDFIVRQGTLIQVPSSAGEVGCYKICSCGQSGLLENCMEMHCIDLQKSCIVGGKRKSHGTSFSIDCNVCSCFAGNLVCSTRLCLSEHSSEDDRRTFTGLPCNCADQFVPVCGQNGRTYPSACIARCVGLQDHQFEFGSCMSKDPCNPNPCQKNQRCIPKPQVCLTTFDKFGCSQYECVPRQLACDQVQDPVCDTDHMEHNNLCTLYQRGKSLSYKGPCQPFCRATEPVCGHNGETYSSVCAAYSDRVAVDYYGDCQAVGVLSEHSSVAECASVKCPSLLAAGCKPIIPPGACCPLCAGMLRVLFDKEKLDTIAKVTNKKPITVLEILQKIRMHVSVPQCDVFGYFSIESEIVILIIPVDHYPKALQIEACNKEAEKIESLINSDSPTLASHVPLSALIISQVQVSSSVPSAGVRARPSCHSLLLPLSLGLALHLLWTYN

Variants of: B1
Conditions: with reck_human RECK

Variant | effect of a mutation on the interaction
MAQTVPPCELPCKEYDVARNTGAYTSSGLATASFRTSKYLLEEWFQNCYARYHQAFADRDQSERQRHESQQLATETQALAQRTQQDSTRTVGERLQDTHSWKSELQREMEALAAETNLLLAQKQRLERALDATEVPFSITTDNLQCRERREHPNLVRDHVETELLKEAELIRNIQELLKRTIMQAVSQIRLNREHKETCEMDWSDKMEAYNIDETCGRHHSQSTEVQAHPYSTTFQESASTPETRAKFTQDNLCCAQRERLASANLRVLVDCILRDTSEDLRLQCDAVNLAFGRRCEELEDARYKLHHHLHKTLREITDQEHNVAALKQAIKDKEAPLHVAQTRLYLRSHRPNMELCRDAAQFRLLSEVEELNMSLTALREKLLEAEQSLRNLEDIHMSLEKDIAAMTNSLFIDRQKCMAHRTRYPTILQLAGYQ [R255C] | with no effect
MAQTVPPCELPCKEYDVARNTGAYTSSGLATASFRTSKYLLEEWFQNCYARYHQAFADRDQSERQRHESQQLATETQALAQRTQQDSTRTVGERLQDTHSWKSELQREMEALAAETNLLLAQKQRLERALDATEVPFSITTDNLQCRERREHPNLVRDHVETELLKEAELIRNIQELLKRTIMQAVSQIRLNREHKETCEMDWSDKMEAYNIDETCGRHHSQSTEVQAHPYSTTFQESASTPETRAKFTQDNLCRAQRERLASANLRVLVDCILRDTSEDLRLQCDAVNLAFGRRCEELEDARYKLHHHLHKTLREITDQEHNVAALKQAIKDKEAPLHVAQTRLYLRSHRPNMELCRDAAQFRLLSEVEELNMSLTALREKLLEAEQSLRNLEDIHMSLEKDTAAMTNSLFIDRQKCMAHRTRYPTILQLAGYQ [I404T] | disrupting interaction strength
MAQTVPPCELPCKEYDVARNTGAYTSSGLATASFRTSKYLLEEWFQNCYARYHQAFADRDQSERQRHESQQLATETQALAQRTQQDSTRTVGERLQDTHSWKSELQREMEALAAETNLLLAQKQRLERALDATEVPFSITTDNLQCRERREHPNLVRDHVETELLKEAELIRNIQELLKRTIMQAVSQIRLNREHKETCEMDWSDKMEAYNIDETCGRHHSQSTEVQAHPYSTTFQESASTPETRAKFTQDNLCRAQRERLASANLRVLVDSILRDTSEDLRLQCDAVNLAFGRRCEELEDARYKLHHHLHKTLREITDQEHNVAALKQAIKDKEAPLHVAQTRLYLRSHRPNMELCRDAAQFRLLSEVEELNMSLTALREKLLEAEQSLRNLEDIHMSLEKDIAAMTNSLFIDRQKCMAHRTRYPTILQLAGYQ [C272S] | with no effect
MAQTVPPCELPCKEYDVARNTGAYTSSGLATASFRTSKYLLEEWFQNCYARYHQAFADRDQSERQRHESQQLATETQALAQRTQQDSTRTVGERLQDTHGWKSELQREMEALAAETNLLLAQKQRLERALDATEVPFSITTDNLQCRERREHPNLVRDHVETELLKEAELIRNIQELLKRTIMQAVSQIRLNREHKETCEMDWSDKMEAYNIDETCGRHHSQSTEVQAHPYSTTFQESASTPETRAKFTQDNLCRAQRERLASANLRVLVDCILRDTSEDLRLQCDAVNLAFGRRCEELEDARYKLHHHLHKTLREITDQEHNVAALKQAIKDKEAPLHVAQTRLYLRSHRPNMELCRDAAQFRLLSEVEELNMSLTALREKLLEAEQSLRNLEDIHMSLEKDIAAMTNSLFIDRQKCMAHRTRYPTILQLAGYQ [S100G] | with no effect
MAQTVPPCELPCKEYDVARNTGAYTSSGLATASFRTSKYLLEEWFQNCYARYHQAFADRDQSERQRHESQQLATETQALAQCTQQDSTRTVGERLQDTHSWKSELQREMEALAAETNLLLAQKQRLERALDATEVPFSITTDNLQCRERREHPNLVRDHVETELLKEAELIRNIQELLKRTIMQAVSQIRLNREHKETCEMDWSDKMEAYNIDETCGRHHSQSTEVQAHPYSTTFQESASTPETRAKFTQDNLCRAQRERLASANLRVLVDCILRDTSEDLRLQCDAVNLAFGRRCEELEDARYKLHHHLHKTLREITDQEHNVAALKQAIKDKEAPLHVAQTRLYLRSHRPNMELCRDAAQFRLLSEVEELNMSLTALREKLLEAEQSLRNLEDIHMSLEKDIAAMTNSLFIDRQKCMAHRTRYPTILQLAGYQ [R82C] | with no effect
MAQTVPPCELPCKEYDVARNTGAYTSSGLATASFRTSKYLLEEWFQNCYARYHQAFADRDQSERQRHESQQLATETQALAQRTQQDSTRTVGERLQDTHSWKSELQREMEALAAETNLLLAQKQRLERALDATEVPFSITTDNLQCRERREHPNLVRDHVETELLKEAELIRNIQELLKRTIMQAVSQIRLNREHKETCEMDWSDKMEAYNIDETCGRHHSQSTEVQAHPYSTTFQESASTPETRAKFTQDNLCRAQRERLASANLRVLVDCILRDTSEDLRLQCDAVNLAFGRRCEELEDARYKLHHHLHKTLREITDQEHNVAALKQAIKDKEAPLHVAQTRLYLRSHRPNMELCRDAAQFRLLSEVEELNMSLTALREKLLEAEQSLRNLEDIHMSLEKNIAAMTNSLFIDRQKCMAHRTRYPTILQLAGYQ [D403N] | with no effect
MAQTVPPCELPCKEYDVARNTGAYTSSGLATASFRTSKYLLEEWFQNCYARYHQAFADRDQSERQRHESQQLATETQALAQRTQQDSTRTVGERLQDTHSWKSELQREMEALAAETNLLLAQKQRLERALDATEVPFSITTDNLQCRERREHPNLVRDHVETELLKEAELIRNIQELLKRTIMQAVSQIRLNREHKETCEMDWSDKMEAYNIDETCGRHHSQSTEVQAHPYSTTFQESASTPETRAKFTQDNLCRAQRERLASANLRVLVDCILRDTSEDLRLQCDAVNLAFGRRCEELEDARYKLHHHLHKTLREITDQEHNVAALKQAIKDKEAPLHVAQTRLYLRSHRPNMELCRDAAQFRLLSEVEELNTSLTALREKLLEAEQSLRNLEDIHMSLEKDIAAMTNSLFIDRQKCMAHRTRYPTILQLAGYQ [M374T] | with no effect
MAQTVPPCELPCKEYDVARNTGAYTSSGLATASFRTSKYLLEEWFQNCYARYHQAFADRDQSERQRHESQQLATETQALAQRTQQDSTRTVGERLQDTHSWKSELQREMEALAAETNLLLAQKQRLERALDATEVPFSITTDNLQCRERREHPNLVRDHVETELLKEAELIRNIQELLKRTIMQAVSQIRLNREHKETCEMDWSDKMEAYNIDETCGRHHSQSTEVQAHPYSTTFQESASTPETRAKFTQDNLCRAQRERLASANLRVLVDCILRDTSEDLRLQCDAVNLAFGRRCEELEDARYKLHHHLHKTLREITDQEHNVAALKQAIKDKEAPLHVAQTRLYLRSHRPNMELCRDAAQFRLLSEVEELNVSLTALREKLLEAEQSLRNLEDIHMSLEKDIAAMTNSLFIDRQKCMAHRTRYPTILQLAGYQ [M374V] | with no effect
